From paper PMC7141834 (Science Advances, 2020)

Molecular target: His-Bub3 (recombinant full-length Bub3) (mouse, UniProt Q9WVA3 1-326)
Assay: pull-down

Chain of His-Bub3 (recombinant full-length Bub3) (Q9WVA3 whole entry): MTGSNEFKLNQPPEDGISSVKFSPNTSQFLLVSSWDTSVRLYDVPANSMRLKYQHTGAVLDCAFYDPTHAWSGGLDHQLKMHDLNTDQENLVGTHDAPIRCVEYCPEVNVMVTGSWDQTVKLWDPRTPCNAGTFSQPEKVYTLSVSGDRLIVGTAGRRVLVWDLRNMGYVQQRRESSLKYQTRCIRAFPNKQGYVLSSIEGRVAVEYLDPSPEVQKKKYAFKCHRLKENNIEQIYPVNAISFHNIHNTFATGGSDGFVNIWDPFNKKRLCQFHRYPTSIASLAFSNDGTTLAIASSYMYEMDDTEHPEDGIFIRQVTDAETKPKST

MTSRFGKTYSRKGGNGSSKFDEVFSNKRTTLSTKWGETTFMAKLGQKRPN (domain or fragment, mouse, UniProt Q65Z40 1-50, looked up) [GST-Wapl(1-50)]
binding result: binds
